This note sets out measurements from patent US20170268035, “GENOMIC PROBES” (Howard Hughes Medical Institute, published 2017).

Series [1] deals with T1, dCas9-Halo (D10A/H840A SpCas9, nuclease-deficient) (Streptococcus pyogenes, UniProt Q99ZW2 SEQ:8-1375).
T1 chain: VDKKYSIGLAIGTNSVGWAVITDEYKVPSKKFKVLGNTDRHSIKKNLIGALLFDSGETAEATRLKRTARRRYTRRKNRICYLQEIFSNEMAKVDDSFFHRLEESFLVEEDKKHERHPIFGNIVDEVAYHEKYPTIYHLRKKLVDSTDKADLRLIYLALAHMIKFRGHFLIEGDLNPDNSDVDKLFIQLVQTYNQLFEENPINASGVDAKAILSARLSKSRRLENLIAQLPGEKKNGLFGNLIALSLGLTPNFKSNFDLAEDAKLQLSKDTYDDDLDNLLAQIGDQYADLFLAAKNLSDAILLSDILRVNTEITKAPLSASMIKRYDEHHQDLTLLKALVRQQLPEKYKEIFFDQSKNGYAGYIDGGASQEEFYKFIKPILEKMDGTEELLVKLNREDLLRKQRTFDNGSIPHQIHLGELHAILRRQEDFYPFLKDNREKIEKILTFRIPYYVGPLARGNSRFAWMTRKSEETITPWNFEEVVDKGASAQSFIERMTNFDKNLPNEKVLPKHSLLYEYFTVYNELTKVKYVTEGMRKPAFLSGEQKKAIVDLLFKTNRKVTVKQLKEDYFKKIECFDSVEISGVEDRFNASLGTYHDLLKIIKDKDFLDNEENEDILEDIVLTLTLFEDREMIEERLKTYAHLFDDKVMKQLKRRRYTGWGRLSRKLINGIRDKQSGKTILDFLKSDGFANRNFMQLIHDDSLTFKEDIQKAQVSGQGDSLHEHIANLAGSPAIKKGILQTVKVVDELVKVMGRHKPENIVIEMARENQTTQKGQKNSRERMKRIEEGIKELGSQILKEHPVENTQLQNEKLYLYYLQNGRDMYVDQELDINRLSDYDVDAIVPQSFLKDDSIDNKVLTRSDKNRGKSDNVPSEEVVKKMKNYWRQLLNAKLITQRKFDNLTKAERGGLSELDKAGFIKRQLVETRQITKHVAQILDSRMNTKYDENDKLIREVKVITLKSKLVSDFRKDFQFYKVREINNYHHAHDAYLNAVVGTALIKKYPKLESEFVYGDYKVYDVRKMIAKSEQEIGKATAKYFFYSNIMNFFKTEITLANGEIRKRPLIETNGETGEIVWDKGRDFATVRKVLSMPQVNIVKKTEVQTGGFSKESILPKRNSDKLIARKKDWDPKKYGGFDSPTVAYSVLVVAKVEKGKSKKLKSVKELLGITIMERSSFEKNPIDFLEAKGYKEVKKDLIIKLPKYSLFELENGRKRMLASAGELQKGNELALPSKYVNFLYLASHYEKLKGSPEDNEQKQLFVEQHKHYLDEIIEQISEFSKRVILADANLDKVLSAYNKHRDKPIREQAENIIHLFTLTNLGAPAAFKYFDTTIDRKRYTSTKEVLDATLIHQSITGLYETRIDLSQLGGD
In words: EMSA; binary complex; 100-fold unlabelled sgRNA did not displace; room temperature. Conditions: tags: N-terminal His6, C-terminal HaloTag; JF549 or JF646 Halo ligand labelled; label: 5'-DY547. The protocol:
The stability of the complex is evident from the lack of competition. The control lane (ctrl) indicates the reaction product from a mixture of Cy5 DNA and 30-fold of unlabeled target DNA with dCas9/sgRNA binary complex. As expected, only a small fraction of Cy5-DNA was incorporated into the dCas9 tertiary complex. (B) Competition EMSAs assessing the stability of the binary complex. (B, Left) The indicated fluorescent binary complex was assembled at room temperature for 10 min and incubated further with the indicated fold-amounts of unlabeled sgMajSat at room temperature for 10 min. Unlabeled target DNA was added to the solution subsequently to form a tertiary complex followed by gel electrophoresis. (B, Right) The DY547 intensity of the bands of the tertiary complex plotted as a histogram. The stability of the binary complex of dCas9 and DY547-sgRNA is evident from the lack of competition. The control lane (ctrl) indicates the reaction product from the binary complex formed by a mixture of DY547-sgMajSat and 100-fold of unlabeled sgMajSat with dCas9 protein. As expected, only a small fraction of DY547-sgMajSat was incorporated into the dCas9 tertiary complex. (C) Schematic of two-color CASFISH methods. […]
To explore the possibility of applying multiple dCas9/sgRNA species in one step for multicolor imaging, we assessed the stability of the binary complex by sgRNA competition assay.

Series [2] deals with T1, dCas9-Halo (D10A/H840A SpCas9, …). In words: EMSA; PAM TGG; tertiary complex stable to 100-fold competitor DNA and 1.5 h with 30-fold; 37 C. Conditions: tags: N-terminal His6, C-terminal HaloTag; JF549 or JF646 Halo ligand labelled; label: 5'-DY547; Cy5 (EMSA). The protocol: The stability of the complex is evident from the lack of competition. Error bars represent SD of three independent experiments.
dCas9 protein and sgRNA were incubated together at room temperature for 10 min to examine the binary complex and subsequently were incubated with target DNA at 37° C. for 15 min to examine the tertiary complex. For the competition assay, an additional binary or tertiary complex reaction was performed after the addition of the competitor molecules. Resulting reaction mixtures were subjected to electrophoresis of 1% agarose gel in 1× Tris/borate/EDTA buffer containing 5 mM MgCl2 and were imaged with GE Typhoon Trio+Imagers.
Simultaneous imaging of multiple chromatin domains or genes is critical for studying chromatin interactions. To explore the possibility of using CASFISH to detect multiple DNA targets simultaneously, we first investigated the binding of CASFISH probes to target DNA by electrophoretic mobility shift assays (EMSA). […] To examine the stability of dCas9/sgMajSat binding to its target DNA, we carried out competition assays by adding excessive amounts of unlabeled target DNA to a preformed tertiary complex of JF549-dCas9/sgMajSat/Cy5-DNA. […]

B1: DY547-sgMajSat (ssRNA)
RNA: CCAUAUUCCACGUCCUACAGGUUUAAGAGCUAUGCUGGAAACAGCAUAGCAAGUUUAAAUAAGGCUAGUCCGUUAUCAACUUGAAAAAGUGGCACCGAGUCGGUGCUUUUUUU
B1: the binding result in series [1] is “binds”.

B2: DY547-sgMajSat ; major satellite target DNA (ssRNA ; dsDNA)
RNA: CCAUAUUCCACGUCCUACAGGUUUAAGAGCUAUGCUGGAAACAGCAUAGCAAGUUUAAAUAAGGCUAGUCCGUUAUCAACUUGAAAAAGUGGCACCGAGUCGGUGCUUUUUUU
DNA 1: TTTCTTGCCATATTCCACGTCCTACAGTGG
DNA 2: CCACTGTAGGACGTGGAATATGGCAAGAAA
Turning to B2, in series [2], the binding result is “binds”.
